Reference: PMC12562601

Assays:
[1] = target: high-sensitive (HS) (α4)2(β2)3 nicotinic acetylcholine receptor (human) (UniProt P43681)
[2] = target: low-sensitive (LS) (α4)3(β2)2 nicotinic acetylcholine receptor (human) (UniProt P43681)
[3] = target: α3β2 nicotinic acetylcholine receptor (human) (UniProt P32297)
Sequence of UniProt P32297 (P32297 32-505, chain 1 of 2): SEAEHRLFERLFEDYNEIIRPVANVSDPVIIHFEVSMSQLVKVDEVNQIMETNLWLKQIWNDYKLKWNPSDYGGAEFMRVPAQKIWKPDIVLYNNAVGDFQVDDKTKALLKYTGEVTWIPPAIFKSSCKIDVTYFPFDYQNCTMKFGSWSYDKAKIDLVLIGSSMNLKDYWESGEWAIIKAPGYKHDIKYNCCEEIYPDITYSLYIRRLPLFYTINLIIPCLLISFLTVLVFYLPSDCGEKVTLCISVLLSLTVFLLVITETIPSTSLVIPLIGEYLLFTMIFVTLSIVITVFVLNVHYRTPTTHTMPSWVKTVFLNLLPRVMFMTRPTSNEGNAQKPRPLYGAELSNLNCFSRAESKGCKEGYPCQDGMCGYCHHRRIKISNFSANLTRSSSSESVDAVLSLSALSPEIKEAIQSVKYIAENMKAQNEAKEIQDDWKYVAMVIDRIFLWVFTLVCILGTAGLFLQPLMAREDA
Sequence of UniProt P32297 (P17787 26-502, chain 2 of 2, further chain): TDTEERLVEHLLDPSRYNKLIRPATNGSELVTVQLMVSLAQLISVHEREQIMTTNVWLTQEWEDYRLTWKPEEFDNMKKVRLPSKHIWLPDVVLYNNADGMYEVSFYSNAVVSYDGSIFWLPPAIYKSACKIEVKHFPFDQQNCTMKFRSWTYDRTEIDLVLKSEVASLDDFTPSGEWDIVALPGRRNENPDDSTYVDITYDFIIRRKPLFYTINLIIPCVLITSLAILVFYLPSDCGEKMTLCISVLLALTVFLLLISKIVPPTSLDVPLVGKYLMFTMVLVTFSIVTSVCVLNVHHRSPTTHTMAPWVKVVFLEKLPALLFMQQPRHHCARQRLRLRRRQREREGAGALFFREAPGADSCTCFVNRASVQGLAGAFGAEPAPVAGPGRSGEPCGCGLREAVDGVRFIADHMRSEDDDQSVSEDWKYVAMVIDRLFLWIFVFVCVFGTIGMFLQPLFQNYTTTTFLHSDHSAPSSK

Maximal inhibition of ACh-evoked currents, % (single level fitted for all three datasets), two-electrode voltage clamp in X. laevis oocytes [1]: 31% | Maximal inhibition of ACh-evoked currents, % (single level fitted for all three datasets), two-electrode voltage clamp in X. laevis oocytes [2]: 31% | Maximal inhibition of ACh-evoked currents, % (single level fitted for all three datasets), two-electrode voltage clamp in X. laevis oocytes [3]: 31%
Substance: water-soluble recombinant analog of human prostate stem cell antigen (ws-PSCA) (domain or fragment)
